The results in this text go back to the NTF2 design screens of Basanta et al. (2020).

This data set can be described thus: protease stability score; higher = more stable; yeast display proteolysis, trypsin and chymotrypsin.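 Note: relative to predicted unfolded state with 0 unfolded-like and 1 meaning tenfold more protease.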
“EEEERILFEEMEHLLHNFLTGNEEHLHELIDPRVRILIGDKDIHGMELHANIWKKVKGIKEEYHVHRVKLYNGRNEMDTEVRRVIDGQELSVRTKIIFDVVDGKLKSAEIRFH”: the protease stability score is 0.771.
Then “EEEERVAVEFFRTLQESIRTGDEKTVKELADPNTRLDVGDKHFHGMEEIRKYWLRFDHFERHTLREEDFDVVNGVMSVHGRLEVHGRYNGQRVHTHYHMVIFVLKVNGRWKITEIKLH”, with 1.
Sequence “EEEEWLVKIAIRILIETFRTGDFHLWEELADPNTRLRIGNFEFHGREEVLHSLIEMRIHSVHIEDHKVIDGRLHVDSRLLGTFNGQHINRETRLISLKINGVWFIKSFEFV” returned a protease stability score of 0.648.
The same measure for “EEEHELTELLSRLWVHAIRTGDEDTLKELMDPNTRFEINGKEHIGRERLTDAFRELRVHRLHIEHIEIQGDKVLMETRSDIEINGVRRETETRIILHVVNGRIKEVRVHIK”: 1.84.
The same measure for “EEEHKFITDIVRLFQELLRTGDFTLLRRMIDPHARIDINGVENHGWEKTARHIWELGMTRESEVRIRDVKVYDGRVEIDIEVEIHNDYNGRKIVVRHEIILFVIKFNGRWNLEQIHIK”: 1.65.
The same measure for “EEEKDWSTEVLRLFLEMMATGDWEFLARFLDPHVKLEVDGREFHGREEVSRSLEEHFRKFGADHVEIRLRRIREVDGRLHVDGRLILHIGDKTIERDMQVHSYKIDGQWSIHEVTHK”: 1.45.
Sequence “EEEKEHAREIVDILWELHETGDEEIFRTLADPDVRLLIGDKKIVGREEIWRKLKEVHKHWRLKSYHTRHLHVQGEKVTIDGVINGVYDGVDTSIDVNIQIFTFNGRFRSMREHYS” returned a protease stability score of 0.317.
The same measure for “EEEKEHLTHMAKLFHDLTQTGDEHLFNHLADPHVKIDVHIGDKDLHFHGREEFLWWILEIIEQWRIEFDLRDTIPVNGKVHVKTDIKINVNGREHRIETRLHLVIVNGKLKESEIRVS”: 1.69.
“EEEKEIAEELIRRIRESLRTGDEDLKHKLADPNVRHIFNGRNNHGREEMLRTLEELIKQFGVENIDIELHDWDHVDGRLHIHVRVRYGDYMMHLRIEAEKVNGRWQSETVELR” returned a protease stability score of 1.23.
Then “EEEKESHQWILEVYMHTVRTGDPRMIKELLDPNVKLEAENREVHGREHVLKILWTKLHEMRIEHVTVEDVEVQGNKVRVHNEVHYTFDGQRDILKTEVIATKFDGRWHFKSLREK”, with 0.222; and “EEEKETERIASEHHLEHLRTGDEETYLRNFDPHVRLDIDGREFHGWEFFRHFLRRMGFKHVRHIQIHHSELFNGRLFFDGTIRFRVGDKEDTFKVEVVDVKFNGRWHIQEFRVK”, with 1.43.
Consider “EEEKHLLRRIVRELTESERTGDEDHLDKLLDPHARTNVNGVDFHGREDWRKWTEEFFRRVDHIEFRIEDIKIINGVAIVDTRITMHIGDKHIHFELEIKNVIIDGRVKELRIKFK”, for which the protease stability score amounted to 0.91.
Then “EEEKKETEHWIETFYRIINTGDEETWSKMADPDMRLEVLIDGKKLELHGRDAFEDFVSKMGFDHVHIHDMEVIGEKAHIHTELRYGDKHIRFEIQLVVVNGRYKSVTIRRK”, with 1.75; and “EEEKKNRAHQFLKAVERGDPEELRKQFDPNAHARVGDKRYHGMEEWAKDVMRRVRELRMSIKRLSVDVQGNDVKVNMNLVINRNGKPKEFREVWYFKIHNGHFVELHVQEEP”, with 1.24; and “EEEKRISDRSLEHLVRSWWTGDEQLYTELADPNVRVEIGDKEYHGREDARHALRRELEHIRIKHIVYRRFEFVGEYIHVDTRMLVDVNGVHILRTMHILEFKFDGRWHLTSLIIR”, with 1.21.
The same measure for “EEELELAKKIADTFNHDMETGDEKSRWDLFDPNVRIDWNGKDLHGWEQEEEELERLGITKVELEIKRKEVQGDKVILDGTVRFNGRSTRVHVHIRVVNGRLKSIKIIIR”: 0.345; for “EEEQEDSEWATKLFIEVLETGDEHTSEHLADPDTRVEFNGKILHGREEWNKIVRKVKNARIHFDHIRVQGDKINVDTTVEVDGKRMKFHIISRKFNGVWFLQSIHIK”: 2.07; for “EEEREIHQRHWEERLRAHRTGDEETLERQADPDVRIDFNGVELHGREVAVRFLLEMRLHDVDWRRIHTFDGRVDVDVIVDGEYNGRRYRSTFTLVIIKVNGQWLVHSMEFK”: 0.244.
In turn, “EEERERAKDVFELLWDIEKTGDEDTFTKLADPNVRTHVGDKHFHGRELVAKWLVDVLRELRVHDIEIKSETVINGRNIVDGVLDGHINGRTVKMTTEILILVINGRIREIDIRIL” yielded a protease stability score of 0.825.
The same measure for “EEERETDHRLTEKLRRIIRTGDEEEWSKLVDPNTRVIYGDKQDHGWEAWVRILKDLGAKHIDIEHVDIVNGRVEIHSHLTIGDKHVIIHHRIVHINGKLTEIYIEIHHK”: 0.694; for “EEERKEVKFAFDIWSELFLTGDEEDIHHLADPDVRLDINGKNIHGMELIHKIILHDILEWRLEVRVKHIEVQGDKAEIQMELKFRYNGREKHYKFRIIYKKFDGQWRYESIHMR”: 1.71.
The same measure for “EEERRDAEIALTVIEHHWETGDEKDLDEMLDPDVRVIINGQRYHGREWLSRFREDLGATYHDVHVDDIRIYDGRVEMDFHVRGKVGDKERDTRVRIFMIKFDGRWVVEQITLE”: 1.95; for “EEESKVASDIIELHMRFLLTGNWEMFLRLADPHVRIETEDHRDHGRDWYEKLFRHIRSHVEDMRIKHVELQGDKLHAHGSVRLLIVDGDKYIEVEVDFRFIFDKVNGKWILSSIHLK”: 2.29.
With “EEHHEITKDLIELLERTMKTGDEDILRKMADPHTKVEQGDKRIIGRDEFQEEWVEWMRRVDHAEVRLTDFREFPNHLELHGTLDVNINGRDIRIEIQIIVSKFDGRWSLHSISFR”, the protease stability score came out at 0.107.
Then “EEHYEDMHHAMELFIHAVRTGDEHTLSRMLDPNTRIRIDGVHLIGREQAVKWWLELYKKFPNMRLNLKRIDIFDGKLHVDLETNINGVRLDSHLLISKVDGQWRVDSIQHE”, with 1.5; and “EEIHKHLKELFVRWMKELVTGNEDSFKDLFDPHTRIHMHIGDKEIHAHGRKHLEDMILRFKGLRVEFRVEDSTAIGDKAHADFHLIIHVDGKNITTREEVRISVIDGKIREVHHHIN”, with 1.36; and “EEIIDLMERLAYLWHHWLTTGNEEMLSKFLDPHARIVIGDKIYHGREKIHEELRRHLERFDHIEFRLRHTEVQGNKIHNHGELKLRIGNYTVHYETRFELQIYDGKIHEFQVKID”, with 1.73.
Then “EEKEEIDRREMKRFMKAFETGDEHELKELFDPHARVHVGDKVHIGRHNFLRWFKEWIEKYKNVRIELDDVEYQGEKLHLDLTVEINGRRTTQDLVIYKIDGRWLFKNIHVH”, with 0.607.
The same measure for “EELERDMDHWIELVIKLRKTGDWRQLAEMVDPNVRVDVNGVQIHGRESIEELLKRLGIDNVEVSLRDKDRQGEKMIVDMELHYNGKRHETKYIALKINGKWIFETITIR”: 1.38; for “EELERDSKEVAERLLWDTLTGDEDLLLHLMDPHVRHIVNGVKLHGREALERAIEEHLSHLGIDHIRIRHIDFRIINGKMDVHIHGESIYNGRVVHMIIIFISTKVNGKWVLEELSIEIR”: 1.85.
In turn, “EEMERDIKHAVEVMIRFWETGDERLLTELADPDTKSKIDGRTFHGREDIHKLFHSVIEKVKNIRIEFKRISVQGDKAKIDGTNNFNGREIKTDITLWKFDGRWILESIEIG” had a protease stability score of 1.43.
The same measure for “EENREITEKIMRHWLTLFLTGDFERLIELMDPEVKFLIDGRELHGWEVWRKLMTLTIRRYKNIRIHITSIDVFENHTHVETYENVNGVHIDTRLNLFLVNGRIQSIEMDTK”: 1.7; for “EERERLAEELARIWLEVLETGDWKMLHDLADPNVRNVVGDKEQHGREEMSRFYTEWHEHIRIHRIEIESIDIQGNKIQIHGRIDMEINGKRRDQRLEIIIIVINGRIKRLEVRLH”: 0.948; for “EERKESIRLAVEMIEHVFKTGNPEDEMSLFDPHAKLDVGDKHFHGREEYSRWSEEVRRRYGADHIEFRIEDVHSQGDFVDIHGKEVYIYNGVTFVIDVHFHVLKVNGRWLIKHIRIN”: 1.3.
The same measure for “EERNKFAEDFSRIDTESHRTGDEHSLLRLFDPHARIHQGDFEMHGWEEFSRIMRHEIERYKNATFEVRVDRVDVQGDKMISDGRLHIHQGDKIREYRIFIIVTKVNGQWHIEEVHIV”: 1.11; for “EESEKSAEDATRLIIHMLETGDERLMKHLMDPDVRIEIGEYISIGRENVEELFREWRSKLGIKHIEVKRVRIEVQGNKVHIEMDTRLIVGDKEEETILRVDVVKINGRWYIKSMRLEIR”: 1.95; for “EESEKSAKLLLDWLFRHLITGNEETFQHFADPNARVDQGEKDSHGMEWVRLVLEEIRIDNMHVRDFRIFEGRLIIDTEIRIKYNGVEMTIKVTVVSEKVNGKWRMKSMHVN”: 1.04.
The same measure for “EETREASRIALEIFIRDLVTGNEDSLERLADPDTKFIINGRNYHGMEFLREEIRKWLERFKNIRVEVKVHHQRVFENHIEMDGRLDFNYDGQKEILEVRLFMVKFNGKWYIHSIEIR”: 2.24; for “EEVEEEVERATRRHVVDLLTGNWDKLIHEMDPNTYLLINGVKFHGREVYEILLREFIRKYKNARYHITVRDYHVQGDKAIIDMEIRIRIGDKEHHIDSELILRKVDGKWFMQEERII”: 2.65.
As to “EEWEKAIKFAVKLYKEIMETGDEDMQSHLFDPNVRISVGNKERHGMEEVTKIMTEWRLDDHHVNHVELQGNKVSSDGEINGTFDGRRHRVRIVLIILKVNGVWRIEEVRVI”, the protease stability score was 0.162.
Then “EEWRDHVHHLLELMLHLWRTGDEEIFHRLLDPDTLVRVNGVEFHGRDAMHHVLHRLIEELGINHYRESDFDIQGNKAFHHGELRVNGKTVLEEQRYVIFNGKIKEIRITLH”, with 0.271; and “EHEDELKHFIHELWKYASDTGDFRTELLLLDPNAKVQVGDKEYHGREWLEFELRRLGVDRIIKEIHIHHEHEQGDKLEIRGELHLLFNGKRIVIDVKLFFLKIDGKWFNRHIIIK”, with 1.75; and “EHEEEHTRHFMHFFIEMVETGDETALHKLLDPNAKYIQGDKHLVGRELMVEWMEELVRRFKNIRVHITEIERQGDKARVDEKWDINGKKIKTELIITKIDGQWRIHEIRVK”, with 1.23.
As to “EHLIEELREMTERIVETILTGDEKHLADLADPNTRSHTHIGDKHYRFHGMDLIYELLHQVKNMRLHLRHTDASFVGNKVYVRLHIDLIFNGRDIHFTIHIIIDKYNGKWFIHHIELIFN”, the protease stability score worked out at 1.31.
For “ETEEQYAEELARLYIEIWETGDEETLHKLADPDVRNDVDGKQLHGRESMIEFWRKLGISNVHFILHRLHVKTQGDFIDIHIDGQLDINGKVTRVEHRLHVEKYNGRWLLKEIYIKRD”, the protease stability score was found to be 1.72.
In turn, “GDEEHHATEALERLIHSFETGDEELMTKLVDPHVRFEVNGKLFIGREDVMRWLKERLDRFDHHRVDFKHIRVVGDKVDIHLVLEVDFNGQHFSHDVRVRIIKINGRWRLTHMSIH” registered a protease stability score of 2.3.
Then “GDLEHMLESMARLWTHEVLTGDEDTLRRLADPNVRFESHVNGQRVEFHGMEEVAEWMRKHLEEIRSRIELRTIEPQGNKAHVDGTTHLHYNGRTVIKKTHVHLSIVDGKIQRVELELR”, with -0.051.
